One assay addresses T1, Halo-KDELR-V5-VN (human) (UniProt P24390).
T1 sequence: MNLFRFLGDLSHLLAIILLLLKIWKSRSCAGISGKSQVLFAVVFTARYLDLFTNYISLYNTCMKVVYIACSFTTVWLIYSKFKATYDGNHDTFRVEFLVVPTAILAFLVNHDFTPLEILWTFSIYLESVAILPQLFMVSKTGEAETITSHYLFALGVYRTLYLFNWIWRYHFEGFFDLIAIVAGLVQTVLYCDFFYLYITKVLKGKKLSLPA

For assay [1], the target named is T2, KDELR-mCherry (HT1080 stable) (human) (UniProt P24390).
T2 sequence: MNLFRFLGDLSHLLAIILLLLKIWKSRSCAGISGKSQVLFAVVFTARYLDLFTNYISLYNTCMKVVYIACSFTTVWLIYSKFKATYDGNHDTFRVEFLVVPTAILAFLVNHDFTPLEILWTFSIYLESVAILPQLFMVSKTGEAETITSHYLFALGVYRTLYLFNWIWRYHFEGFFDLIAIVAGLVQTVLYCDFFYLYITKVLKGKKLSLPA

Take TAEKDEL [TAEKDEL peptide]: the Venus signal of Halo-KDELR-V5-VN with Halo-KDELR-myc-VC (split Venus), 30 min against 0 min with 50 μM TAEKDEL peptide with Halo-KDELR-V5-VN (human) is 2 fold. Besides, the phosphorylation of STAT3 (Tyr705) in HT1080 cells stably overexpressing KDELR-mCherry, 50 μM TAEKDEL at 37 °C for 30 min, western blot in assay [1] came to 37%.

(Values after publication PMC10880305.)
